# Literature values as cited in patent US20240382567A1, “Long-acting PTH compound treatments” (Ascendis Pharma Bone Diseases A/S, priority 2021, published 2024).
# Like-named read-outs stand apart in the source and are kept apart here.
# B1: PTH(1-84): daily injection of PTH(1-84), approved as adjunct to calcium and vitamin D to control hypocalcemia in hypoparathyroidism (protein, UniProt P01270 32-115, looked up)
# Parathyroid hormone: SVSEIQLMHNLGKHLNSMERVEWLRKKLQDVHNFVALGAPLAPRDAGSQRPRKKEDNVLVESHEKSLGEADKADVNVLTKAKSQ
# modifications: Parathyroid hormone
# notes: daily injection of PTH(1-84), approved as adjunct to calcium and vitamin D to control hypocalcemia in hypoparathyroidism
# Tested on: patients with hypoparathyroidism
molecule,measurement,setting,value
B1,Total hip BMD increase from baseline,"3 years, P=0.04",2.10%
same,Lumbar spine BMD increase,"at 24 months, P=0.01",3.2%
same,Distal one third radius BMD mean loss,"study conclusion (year 6), P=0.0001 vs baseline",4.4%
same,Femoral neck BMD increase,"year 3, P=0.04",2.6%
same,Distal one third radius T-score,year 6,−0.28
same,Femoral neck BMD versus baseline,year 6,not different from baseline
same,Lumbar spine BMD mean gain from baseline,"year 6, P=0.004",3.8%
same,Total hip BMD increase from baseline,"year 6, P=0.02",2.4%
